Assay results published in patent US20210206865A1.

Target: monkey BCMA-MMH (monkey BCMA with C-terminal myc-myc-hexahistidine tag) (monkey)
Test: SPR Biacore, 25 C, mAb captured via anti-hFc

monkey BCMA-MMH (monkey BCMA with C-terminal myc-myc-hexahistidine tag) (monkey), sequence (chain, as listed by the source limits assumed): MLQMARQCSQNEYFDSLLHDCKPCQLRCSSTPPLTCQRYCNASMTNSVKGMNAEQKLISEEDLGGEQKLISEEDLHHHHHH

B1: mAb16732 (REGN4514) (antibody, V domains shown)
VH: EVQLVESGGGLVQPGRSLRLSCAASGFTFDDYAMHWVRQAPGKGLEWVSGISWNSGNMGYADSVKGRFTISRDNAKNSLFLQMHSLRAEDTAFYYCAKVRLTAFDFWGQGTLVTVSS
VL: DIQMTQSPSSLSASVGDRVTITCRTSQSIGNYLNWFQQKPGKAPKLLIYTASSLQNGVPSRFTGSGSGTDFTLTISSLQPEDFVIYYCQQSFSTPYTFGQGTKLEIK
90 nM mfBCMA.mmh Bind (RU): 1.1 RU

B2: mAb16747 (REGN4515) (antibody, V domains shown)
VH: QVQLVESGGGLVKPGGSLRLSCAASGFTFSDYYISWIRQAPGKGLEWVSYISSSGSSIKYADSVKGRFTISRDNAKNSLYLQMNSLRAEDTAVYYCAREGGNYGMDVWGQGTTVTVSS
VL: DIQMTQSPSSVSASVGDRVTITCRASQGINNWLVWYQQKPGKAPKLLIYAATSLQSGVPSRFSGSGSGTDFTLTISSLQPEDFATYYCQQANSFPPTFGQGTKLEIK
90 nM mfBCMA.mmh Bind (RU): 1.9 RU
